Assay results published in PMC9482650, “Quantitative fragmentomics allow affinity mapping of interactomes” (Nature Communications, 2022).
One block for each binder: values may come before it.

Legend:
Assay in all cases: holdup assay
Design in all cases: key: below the threshold = too weak to quantify, mostly under pKd 3.1 to 4
APBA1_1, Q02410 = target: T1, APBA1_1, Q02410
T1 sequence (Q02410 651-752, limits assumed, looked up): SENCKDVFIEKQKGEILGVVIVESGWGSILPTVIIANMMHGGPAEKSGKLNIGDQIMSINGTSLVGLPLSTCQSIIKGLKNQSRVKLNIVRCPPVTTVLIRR

CASK, O14936 = target: CASK, O14936
DLG3_1, Q92796 = target: T2, DLG3_1, Q92796
T2 sequence (Q92796 125-227, limits assumed, looked up): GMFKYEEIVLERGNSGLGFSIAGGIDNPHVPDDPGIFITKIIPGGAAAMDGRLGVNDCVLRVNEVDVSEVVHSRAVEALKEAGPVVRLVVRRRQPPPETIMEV

DLG3_2, Q92796 = target: T3, DLG3_2, Q92796
T3 sequence (Q92796 221-321, limits assumed, looked up): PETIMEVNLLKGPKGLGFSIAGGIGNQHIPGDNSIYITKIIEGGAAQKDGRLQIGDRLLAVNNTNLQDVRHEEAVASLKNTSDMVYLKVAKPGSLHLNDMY

DLG3_3, Q92796 = target: T4, DLG3_3, Q92796
T4 sequence (Q92796 374-475, limits assumed, looked up): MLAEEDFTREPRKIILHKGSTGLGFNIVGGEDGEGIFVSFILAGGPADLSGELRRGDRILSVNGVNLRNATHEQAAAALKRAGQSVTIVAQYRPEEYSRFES

DLG4_2, P78352 = target: DLG4_2, P78352
FRMPD2_3, Q68DX3 = target: FRMPD2_3, Q68DX3
GIPC2, Q8TF65 = target: GIPC2, Q8TF65
GRIP1_2, Q9Y3R0 = target: T5, GRIP1_2, Q9Y3R0
T5 sequence (Q9Y3R0 145-248, limits assumed, looked up): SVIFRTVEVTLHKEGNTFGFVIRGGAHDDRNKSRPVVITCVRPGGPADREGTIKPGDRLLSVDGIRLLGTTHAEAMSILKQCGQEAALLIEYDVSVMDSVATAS

Inadl_3, Q8NI35 = target: Inadl_3, Q8NI35
Inadl_8, Q8NI35 = target: Inadl_8, Q8NI35
Inadl_9, Q8NI35 = target: Inadl_9, Q8NI35
LIN7B, Q9HAP6 = target: T6, LIN7B, Q9HAP6
T6 sequence (Q9HAP6 88-185, limits assumed, looked up): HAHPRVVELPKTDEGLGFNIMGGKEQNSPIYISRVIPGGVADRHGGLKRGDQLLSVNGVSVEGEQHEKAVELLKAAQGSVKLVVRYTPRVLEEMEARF

LNX1_1, Q8TBB1 = target: LNX1_1, Q8TBB1
LNX1_2, Q8TBB1 = target: LNX1_2, Q8TBB1
MAGI1_1, Q96QZ7 = target: MAGI1_1, Q96QZ7
MAGI2_4, Q86UL8 = target: MAGI2_4, Q86UL8
MAGI2_6, Q86UL8 = target: MAGI2_6, Q86UL8
MPP2, Q14168 = target: T7, MPP2, Q14168
T7 sequence (Q14168 180-250, limits assumed, looked up): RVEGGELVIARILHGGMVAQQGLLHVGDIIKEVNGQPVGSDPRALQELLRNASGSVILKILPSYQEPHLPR

NHERF3_3, Q5T2W1 = target: T8, NHERF3_3, Q5T2W1
T8 sequence (Q5T2W1 238-333, limits assumed, looked up): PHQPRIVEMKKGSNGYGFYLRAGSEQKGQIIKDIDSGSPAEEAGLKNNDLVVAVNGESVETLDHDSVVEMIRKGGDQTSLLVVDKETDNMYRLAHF

NHERF4_4, Q86UT5 = target: NHERF4_4, Q86UT5
PTPN13_1, Q12923 = target: T9, PTPN13_1, Q12923
T9 sequence (Q12923 1088-1188, limits assumed, looked up): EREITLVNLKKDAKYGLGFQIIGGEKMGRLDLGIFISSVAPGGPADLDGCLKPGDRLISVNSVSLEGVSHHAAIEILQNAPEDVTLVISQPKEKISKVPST

SNTG1, Q9NSN8 = target: T10, SNTG1, Q9NSN8
T10 sequence (Q9NSN8 52-150, limits assumed, looked up): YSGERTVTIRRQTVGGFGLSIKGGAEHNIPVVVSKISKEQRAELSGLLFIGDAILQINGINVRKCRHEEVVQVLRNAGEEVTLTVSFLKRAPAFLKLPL

TJP1_3, Q07157 = target: TJP1_3, Q07157
TJP3_3, O95049 = target: T11, TJP3_3, O95049
T11 sequence (O95049 375-456, limits assumed, looked up): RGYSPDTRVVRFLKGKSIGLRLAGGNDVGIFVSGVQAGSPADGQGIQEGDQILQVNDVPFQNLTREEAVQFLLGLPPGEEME

TX1BP3, O14907 = target: T12, TX1BP3, O14907
T12 sequence (O14907 10-122, limits assumed, looked up): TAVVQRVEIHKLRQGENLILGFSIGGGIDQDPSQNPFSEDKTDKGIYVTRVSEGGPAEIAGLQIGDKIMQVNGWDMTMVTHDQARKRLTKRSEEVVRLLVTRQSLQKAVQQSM

[1] = plain residues with an end cap or a label only (N-terminal biotin on a linker: ttds)
[2] = plain residues with an end cap or a label only (N-terminal biotin on a linker: ahx)

Chain of FRMPD2_3, Q68DX3 (Q68DX3 1073-1166): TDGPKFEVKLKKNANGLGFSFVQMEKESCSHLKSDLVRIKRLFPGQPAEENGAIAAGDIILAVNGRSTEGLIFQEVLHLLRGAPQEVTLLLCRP
Chain of LNX1_1, Q8TBB1 (Q8TBB1 261-371): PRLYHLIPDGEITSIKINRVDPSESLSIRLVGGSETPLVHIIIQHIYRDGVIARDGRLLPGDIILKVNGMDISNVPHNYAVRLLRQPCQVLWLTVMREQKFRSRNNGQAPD
Chain of MAGI2_6, Q86UL8 (Q86UL8 1141-1229): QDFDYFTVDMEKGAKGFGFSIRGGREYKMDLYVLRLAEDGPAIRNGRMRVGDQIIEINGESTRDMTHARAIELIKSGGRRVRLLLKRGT
Chain of NHERF4_4, Q86UT5 (Q86UT5 464-550): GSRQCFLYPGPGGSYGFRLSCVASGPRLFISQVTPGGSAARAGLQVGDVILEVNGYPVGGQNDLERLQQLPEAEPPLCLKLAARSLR
Chain of Inadl_8, Q8NI35 (Q8NI35 1425-1530): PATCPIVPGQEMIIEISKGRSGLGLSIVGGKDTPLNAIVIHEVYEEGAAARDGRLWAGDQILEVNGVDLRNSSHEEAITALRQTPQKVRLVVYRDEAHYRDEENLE
Chain of TJP1_3, Q07157 (Q07157 416-512): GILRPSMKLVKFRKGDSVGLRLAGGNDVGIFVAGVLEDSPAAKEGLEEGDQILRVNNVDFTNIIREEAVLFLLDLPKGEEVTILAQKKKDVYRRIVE
Chain of LNX1_2, Q8TBB1 (Q8TBB1 371-470): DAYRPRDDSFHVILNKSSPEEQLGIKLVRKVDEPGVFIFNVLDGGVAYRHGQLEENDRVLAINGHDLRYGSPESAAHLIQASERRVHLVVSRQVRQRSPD
Chain of GIPC2, Q8TF65 (Q8TF65 112-203): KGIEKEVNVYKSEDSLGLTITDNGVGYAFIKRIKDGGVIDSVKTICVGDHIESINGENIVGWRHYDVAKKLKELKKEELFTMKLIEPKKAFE
Chain of MAGI1_1, Q96QZ7 (Q96QZ7 1-106): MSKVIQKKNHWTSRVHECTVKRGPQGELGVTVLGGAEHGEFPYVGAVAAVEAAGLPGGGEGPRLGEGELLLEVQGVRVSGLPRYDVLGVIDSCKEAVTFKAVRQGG
Chain of CASK, O14936 (O14936 487-570): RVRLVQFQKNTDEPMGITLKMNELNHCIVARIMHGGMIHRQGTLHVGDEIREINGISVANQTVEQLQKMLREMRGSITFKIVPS
Chain of DLG4_2, P78352 (P78352 155-259): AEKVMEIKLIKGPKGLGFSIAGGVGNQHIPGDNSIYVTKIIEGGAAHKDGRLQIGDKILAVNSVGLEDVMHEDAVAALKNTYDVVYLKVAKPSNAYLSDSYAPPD
Chain of Inadl_9, Q8NI35 (Q8NI35 1530-1615): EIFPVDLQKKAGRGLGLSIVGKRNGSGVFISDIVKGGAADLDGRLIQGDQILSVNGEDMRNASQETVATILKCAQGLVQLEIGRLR
Chain of Inadl_3, Q8NI35 (Q8NI35 359-469): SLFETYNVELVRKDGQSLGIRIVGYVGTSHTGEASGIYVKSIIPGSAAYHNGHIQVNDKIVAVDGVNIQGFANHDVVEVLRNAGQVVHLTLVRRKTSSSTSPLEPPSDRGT
Chain of MAGI2_4, Q86UL8 (Q86UL8 772-865): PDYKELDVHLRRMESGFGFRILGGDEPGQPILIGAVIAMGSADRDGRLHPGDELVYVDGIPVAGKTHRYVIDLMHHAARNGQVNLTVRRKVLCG

pKd (APBA1_1, Q02410; [1]): below the threshold | pKd (CASK, O14936; [1]): 3.47 | pKd (DLG3_1, Q92796; [1]): below the threshold | pKd (DLG3_2, Q92796; [1]): 4.04 | pKd (DLG3_3, Q92796; [1]): 3.71 | pKd (DLG4_2, P78352; [1]): 3.67 | pKd (FRMPD2_3, Q68DX3; [1]): below the threshold | pKd (Inadl_3, Q8NI35; [1]): 3.45 | pKd (Inadl_8, Q8NI35; [1]): 4.46 | pKd (Inadl_9, Q8NI35; [1]): below the threshold | pKd (LIN7B, Q9HAP6; [1]): 3.49 | pKd (LNX1_1, Q8TBB1; [1]): below the threshold | pKd (LNX1_2, Q8TBB1; [1]): 3.77 | pKd (MAGI1_1, Q96QZ7; [1]): below the threshold | pKd (MAGI2_4, Q86UL8; [1]): 3.64 | pKd (MAGI2_6, Q86UL8; [1]): 4.07 | pKd (MPP2, Q14168; [1]): below the threshold | pKd (NHERF3_3, Q5T2W1; [1]): 3.67 | pKd (NHERF4_4, Q86UT5; [1]): below the threshold | pKd (PTPN13_1, Q12923; [1]): below the threshold | pKd (SNTG1, Q9NSN8; [1]): 4.01 | pKd (TJP1_3, Q07157; [1]): below the threshold | pKd (TJP3_3, O95049; [1]): below the threshold | pKd (TX1BP3, O14907; [1]): below the threshold
B3: PTEN, P60484 (peptide)
chain: DEDQHTQITKV

pKd (APBA1_1, Q02410; [2]): below the threshold | pKd (CASK, O14936; [2]): below the threshold | pKd (DLG3_1, Q92796; [2]): below the threshold | pKd (DLG3_2, Q92796; [2]): below the threshold | pKd (DLG3_3, Q92796; [2]): below the threshold | pKd (DLG4_2, P78352; [2]): below the threshold | pKd (FRMPD2_3, Q68DX3; [2]): below the threshold | pKd (GIPC2, Q8TF65; [2]): below the threshold | pKd (Inadl_3, Q8NI35; [2]): below the threshold | pKd (Inadl_8, Q8NI35; [2]): below the threshold | pKd (Inadl_9, Q8NI35; [2]): below the threshold | pKd (LIN7B, Q9HAP6; [2]): below the threshold | pKd (LNX1_1, Q8TBB1; [2]): below the threshold | pKd (LNX1_2, Q8TBB1; [2]): below the threshold | pKd (MAGI1_1, Q96QZ7; [2]): below the threshold | pKd (MAGI2_4, Q86UL8; [2]): below the threshold | pKd (MAGI2_6, Q86UL8; [2]): below the threshold | pKd (MPP2, Q14168; [2]): below the threshold | pKd (NHERF3_3, Q5T2W1; [2]): below the threshold | pKd (NHERF4_4, Q86UT5; [2]): below the threshold | pKd (PTPN13_1, Q12923; [2]): below the threshold | pKd (SNTG1, Q9NSN8; [2]): below the threshold | pKd (TJP1_3, Q07157; [2]): below the threshold | pKd (TJP3_3, O95049; [2]): below the threshold | pKd (TX1BP3, O14907; [2]): 3.65
B4: SHROOM3, Q8TF72 (peptide)
chain: GIFPTLTSPL

pKd (APBA1_1, Q02410; [2]): below the threshold | pKd (CASK, O14936; [2]): below the threshold | pKd (DLG3_1, Q92796; [2]): below the threshold | pKd (DLG3_2, Q92796; [2]): 3.87 | pKd (DLG3_3, Q92796; [2]): below the threshold | pKd (DLG4_2, P78352; [2]): 3.95 | pKd (FRMPD2_3, Q68DX3; [2]): below the threshold | pKd (GIPC2, Q8TF65; [2]): 3.81 | pKd (GRIP1_2, Q9Y3R0; [2]): below the threshold | pKd (Inadl_3, Q8NI35; [2]): below the threshold | pKd (Inadl_8, Q8NI35; [2]): 3.86 | pKd (Inadl_9, Q8NI35; [2]): below the threshold | pKd (LIN7B, Q9HAP6; [2]): below the threshold | pKd (LNX1_1, Q8TBB1; [2]): below the threshold | pKd (LNX1_2, Q8TBB1; [2]): below the threshold | pKd (MAGI1_1, Q96QZ7; [2]): below the threshold | pKd (MAGI2_4, Q86UL8; [2]): below the threshold | pKd (MAGI2_6, Q86UL8; [2]): 4.57 | pKd (MPP2, Q14168; [2]): below the threshold | pKd (NHERF3_3, Q5T2W1; [2]): below the threshold | pKd (NHERF4_4, Q86UT5; [2]): below the threshold | pKd (PTPN13_1, Q12923; [2]): below the threshold | pKd (SNTG1, Q9NSN8; [2]): 4.29 | pKd (TJP1_3, Q07157; [2]): below the threshold | pKd (TJP3_3, O95049; [2]): below the threshold | pKd (TX1BP3, O14907; [2]): below the threshold
B5: RAPGEF2, Q9Y4G8 (peptide)
chain: EDEDEQVSAV

The remaining lines, values behind:

B1: KCNA5, P22460 (peptide)
chain: CLDTSRETDL
pKd (APBA1_1, Q02410; [1]): below the threshold | pKd (CASK, O14936; [1]): below the threshold | pKd (DLG3_1, Q92796; [1]): 3.49 | pKd (DLG3_2, Q92796; [1]): 4.35 | pKd (DLG3_3, Q92796; [1]): below the threshold | pKd (DLG4_2, P78352; [1]): 4.43 | pKd (FRMPD2_3, Q68DX3; [1]): below the threshold | pKd (GIPC2, Q8TF65; [1]): below the threshold | pKd (GRIP1_2, Q9Y3R0; [1]): 3.65 | pKd (Inadl_3, Q8NI35; [1]): below the threshold | pKd (Inadl_8, Q8NI35; [1]): below the threshold | pKd (Inadl_9, Q8NI35; [1]): below the threshold | pKd (LIN7B, Q9HAP6; [1]): below the threshold | pKd (LNX1_1, Q8TBB1; [1]): 3.91 | pKd (LNX1_2, Q8TBB1; [1]): below the threshold | pKd (MAGI1_1, Q96QZ7; [1]): below the threshold | pKd (MAGI2_4, Q86UL8; [1]): below the threshold | pKd (MAGI2_6, Q86UL8; [1]): 4.95 | pKd (MPP2, Q14168; [1]): below the threshold | pKd (NHERF3_3, Q5T2W1; [1]): below the threshold | pKd (NHERF4_4, Q86UT5; [1]): below the threshold | pKd (PTPN13_1, Q12923; [1]): below the threshold | pKd (SNTG1, Q9NSN8; [1]): 4.6 | pKd (TJP1_3, Q07157; [1]): below the threshold | pKd (TJP3_3, O95049; [1]): below the threshold | pKd (TX1BP3, O14907; [1]): 4.28

B2: PDLIM7, Q9NR12;Q9NR12-1 (peptide)
chain: LCKSHAFSHV
pKd (APBA1_1, Q02410; [2]): below the threshold | pKd (CASK, O14936; [2]): below the threshold | pKd (DLG3_1, Q92796; [2]): below the threshold | pKd (DLG3_2, Q92796; [2]): below the threshold | pKd (DLG3_3, Q92796; [2]): below the threshold | pKd (DLG4_2, P78352; [2]): 3.49 | pKd (FRMPD2_3, Q68DX3; [2]): below the threshold | pKd (GRIP1_2, Q9Y3R0; [2]): below the threshold | pKd (Inadl_3, Q8NI35; [2]): below the threshold | pKd (Inadl_8, Q8NI35; [2]): 4.1 | pKd (Inadl_9, Q8NI35; [2]): below the threshold | pKd (LIN7B, Q9HAP6; [2]): below the threshold | pKd (LNX1_2, Q8TBB1; [2]): below the threshold | pKd (MAGI1_1, Q96QZ7; [2]): below the threshold | pKd (MAGI2_4, Q86UL8; [2]): below the threshold | pKd (MPP2, Q14168; [2]): below the threshold | pKd (NHERF3_3, Q5T2W1; [2]): below the threshold | pKd (NHERF4_4, Q86UT5; [2]): below the threshold | pKd (PTPN13_1, Q12923; [2]): below the threshold | pKd (SNTG1, Q9NSN8; [2]): below the threshold | pKd (TJP1_3, Q07157; [2]): below the threshold | pKd (TJP3_3, O95049; [2]): below the threshold | pKd (TX1BP3, O14907; [2]): 3.95
